Reference: the Immune Epitope Database (IEDB)

Key:
HLA-A*02:01 [1] = assay: IEDB peptide-MHC binding, purified MHC/competitive/fluorescence; filed as Kd, often an IC50 or EC50 that approximates it; ≥ and ≤ were set here for values at or beyond the usual limits of such assays
HLA-A*02:03 = assay: as above
HLA-A*02:11 [2] = assay: as above
HLA-A*02:12 = assay: as above
HLA-A*02:16 = assay: as above
HLA-A*02:19 = assay: as above
HLA-A*03:01 [3] = assay: as above
HLA-A*26:01 [4] = assay: as above
HLA-A*29:02 = assay: as above
HLA-A*68:02 = assay: as above
HLA-A*69:01 [5] = assay: as above
HLA-B*15:01 [6] = assay: as above
HLA-B*18:01 = assay: as above
HLA-B*27:03 = assay: as above
HLA-B*39:01 = assay: as above
HLA-B*46:01 = assay: as above
HLA-B*51:01 = assay: as above
HLA-B*57:01 = assay: as above
HLA-A*24:03 [7] = assay: as above
HLA-A*23:01 = assay: as above; settings: source organism: Entamoeba histolytica HM-1:IMSS
HLA-B*15:17 = assay: as above; settings: source organism: Entamoeba histolytica HM-1:IMSS
HLA-A*01:01 = assay: IEDB peptide-MHC binding, purified MHC/direct/fluorescence; filed as Kd, often an IC50 or EC50 that approximates it; ≥ and ≤ were set here for values at or beyond the usual limits of such assays
HLA-A*02:01 [8] = assay: as above
HLA-A*03:01 [9] = assay: as above
HLA-A*11:01 = assay: as above
HLA-A*24:03 [10] = assay: as above
HLA-A*26:01 [11] = assay: as above
HLA-A*31:01 = assay: as above
HLA-A*69:01 [12] = assay: as above
HLA-B*07:02 = assay: as above
HLA-B*08:01 = assay: as above
HLA-B*15:01 [13] = assay: as above
HLA-B*27:05 = assay: as above
HLA-B*40:01 = assay: as above
HLA-B*58:01 = assay: as above
HLA-A*02:50 = assay: IEDB peptide-MHC binding, purified MHC/competitive/fluorescence; filed as Kd, often an IC50 or EC50 that approximates it; ≥ and ≤ were set here for values at or beyond the usual limits of such assays
HLA-B*44:02 = assay: IEDB peptide-MHC binding, purified MHC/direct/fluorescence; filed as Kd, often an IC50 or EC50 that approximates it; ≥ and ≤ were set here for values at or beyond the usual limits of such assays; settings: source organism: Yersinia pestis
HLA-A*02:11 [14] = assay: as above; settings: source organism: Burkholderia mallei ATCC 23344
[15] = source organism: Vibrio cholerae 2740-80
[16] = source organism: Mycobacterium tuberculosis variant bovis BCG str. Pasteur 1173P2
[17] = source organism: Entamoeba histolytica HM-1:IMSS
[18] = source organism: Haemophilus influenzae
[19] = source organism: Yersinia pestis
[20] = source organism: Burkholderia mallei

Q: CERYGFPAS was tested. Which Kd (HLA-A*02:01 [1]; [15]) did it give?
A: ≥ 20 µM

Q: And the Kd (HLA-A*02:03; [15])?
A: ≥ 20 µM

Q: What about the Kd (HLA-A*02:11 [2]; [15]) of the same sequence?
A: ≥ 20 µM

Q: What about the Kd (HLA-A*02:12; [15]) of the same sequence?
A: ≥ 20 µM

Q: And the Kd (HLA-A*02:16; [15])?
A: ≥ 20 µM

Q: What about the Kd (HLA-A*02:19; [15]) of the same sequence?
A: ≥ 20 µM

Q: What about the Kd (HLA-A*03:01 [3]; [15]) of the same sequence?
A: ≥ 20 µM

Q: And the Kd (HLA-A*26:01 [4]; [15])?
A: ≥ 20 µM

Q: What about the Kd (HLA-A*29:02; [15]) of the same sequence?
A: ≥ 20 µM

Q: And the Kd (HLA-A*68:02; [15])?
A: ≥ 20 µM

Q: What about the Kd (HLA-A*69:01 [5]; [15]) of the same sequence?
A: ≥ 20 µM

Q: What about the Kd (HLA-B*15:01 [6]; [15]) of the same sequence?
A: ≥ 20 µM

Q: And the Kd (HLA-B*18:01; [15])?
A: 0.0433 µM

Q: What about the Kd (HLA-B*27:03; [15]) of the same sequence?
A: ≥ 20 µM

Q: What about the Kd (HLA-B*39:01; [15]) of the same sequence?
A: ≥ 20 µM

Q: And the Kd (HLA-B*46:01; [15])?
A: ≥ 20 µM

Q: What about the Kd (HLA-B*51:01; [15]) of the same sequence?
A: ≥ 20 µM

Q: And the Kd (HLA-B*57:01; [15])?
A: ≥ 20 µM

Q: What does the source list for DEGFHAATV?
A: Kd (HLA-A*02:01 [1]; [16]): ≥ 20 µM; Kd (HLA-A*02:03; [16]): ≥ 20 µM; Kd (HLA-A*02:11 [2]; [16]): ≥ 20 µM; Kd (HLA-A*02:12; [16]): ≥ 20 µM; Kd (HLA-A*02:16; [16]): ≥ 20 µM; Kd (HLA-A*02:19; [16]): ≥ 20 µM; Kd (HLA-A*03:01 [3]; [16]): ≥ 20 µM; Kd (HLA-A*24:03 [7]; [16]): ≥ 20 µM; Kd (HLA-A*26:01 [4]; [16]): ≥ 20 µM; Kd (HLA-A*29:02; [16]): ≥ 20 µM; Kd (HLA-B*15:01 [6]; [16]): ≥ 20 µM; Kd (HLA-B*18:01; [16]): 0.0788 µM; Kd (HLA-B*27:03; [16]): ≥ 20 µM; Kd (HLA-B*39:01; [16]): ≥ 20 µM; Kd (HLA-B*46:01; [16]): ≥ 20 µM; Kd (HLA-B*57:01; [16]): ≥ 20 µM

Q: With KVSVGSYFC as the sequence, how does the Kd (HLA-A*02:01 [1]; [17]) read?
A: ≥ 20 µM

Q: And the Kd (HLA-A*02:03; [17])?
A: ≥ 20 µM

Q: What about the Kd (HLA-A*02:11 [2]; [17]) of the same sequence?
A: ≥ 20 µM

Q: And the Kd (HLA-A*02:12; [17])?
A: ≥ 20 µM

Q: What about the Kd (HLA-A*02:16; [17]) of the same sequence?
A: 9 µM

Q: And the Kd (HLA-A*02:19; [17])?
A: ≥ 20 µM

Q: And the Kd (HLA-A*03:01 [3]; [17])?
A: ≥ 20 µM

Q: And the Kd (HLA-A*23:01)?
A: ≥ 20 µM

Q: What about the Kd (HLA-A*24:03 [7]; [17]) of the same sequence?
A: ≥ 20 µM

Q: What about the Kd (HLA-A*26:01 [4]; [17]) of the same sequence?
A: ≥ 20 µM

Q: What about the Kd (HLA-A*29:02; [17]) of the same sequence?
A: ≥ 20 µM

Q: And the Kd (HLA-A*68:02; [17])?
A: ≥ 20 µM

Q: And the Kd (HLA-A*69:01 [5]; [17])?
A: ≥ 20 µM

Q: And the Kd (HLA-B*15:01 [6]; [17])?
A: ≥ 20 µM

Q: And the Kd (HLA-B*15:17)?
A: ≥ 20 µM

Q: What about the Kd (HLA-B*18:01; [17]) of the same sequence?
A: ≥ 20 µM

Q: What about the Kd (HLA-B*27:03; [17]) of the same sequence?
A: ≥ 20 µM

Q: What about the Kd (HLA-B*39:01; [17]) of the same sequence?
A: ≥ 20 µM

Q: And the Kd (HLA-B*46:01; [17])?
A: ≥ 20 µM

Q: What about the Kd (HLA-B*51:01; [17]) of the same sequence?
A: ≥ 20 µM

Q: And the Kd (HLA-B*57:01; [17])?
A: ≥ 20 µM

Q: Which Kd (HLA-A*01:01; [18]) does the source give for LIFPAFFLC here?
A: 5.24 µM

Q: What about the Kd (HLA-A*02:01 [8]; [18]) of the same sequence?
A: 5.1 µM

Q: And the Kd (HLA-A*03:01 [9]; [18])?
A: ≥ 20 µM

Q: And the Kd (HLA-A*11:01; [18])?
A: ≥ 20 µM

Q: And the Kd (HLA-A*24:03 [10]; [18])?
A: ≥ 20 µM

Q: And the Kd (HLA-A*26:01 [11]; [18])?
A: ≥ 20 µM

Q: What about the Kd (HLA-A*31:01; [18]) of the same sequence?
A: ≥ 20 µM

Q: And the Kd (HLA-A*69:01 [12]; [18])?
A: ≥ 20 µM

Q: What about the Kd (HLA-B*07:02; [18]) of the same sequence?
A: ≥ 20 µM

Q: What about the Kd (HLA-B*08:01; [18]) of the same sequence?
A: ≥ 20 µM

Q: What about the Kd (HLA-B*15:01 [13]; [18]) of the same sequence?
A: ≥ 20 µM

Q: What about the Kd (HLA-B*27:05; [18]) of the same sequence?
A: ≥ 20 µM

Q: And the Kd (HLA-B*40:01; [18])?
A: ≥ 20 µM

Q: What about the Kd (HLA-B*58:01; [18]) of the same sequence?
A: ≥ 10 µM

Q: What about the Kd (HLA-A*02:50; source organism: Haemophilus influenzae PittAA) of the same sequence?
A: 0.012 µM

Q: Which results are given for LLIDDSFSS?
A: Kd (HLA-A*01:01; [19]): ≥ 20 µM; Kd (HLA-A*02:01 [8]; [19]): 0.65 µM; Kd (HLA-A*03:01 [9]; [19]): ≥ 20 µM; Kd (HLA-A*11:01; [19]): ≥ 20 µM; Kd (HLA-A*24:03 [10]; [19]): ≥ 20 µM; Kd (HLA-A*26:01 [11]; [19]): ≥ 20 µM; Kd (HLA-A*31:01; [19]): ≥ 20 µM; Kd (HLA-A*69:01 [12]; [19]): ≥ 20 µM; Kd (HLA-B*07:02; [19]): ≥ 20 µM; Kd (HLA-B*08:01; [19]): ≥ 20 µM; Kd (HLA-B*15:01 [13]; [19]): 1.89 µM; Kd (HLA-B*27:05; [19]): ≥ 20 µM; Kd (HLA-B*40:01; [19]): ≥ 20 µM; Kd (HLA-B*44:02): ≥ 20 µM; Kd (HLA-B*58:01; [19]): ≥ 20 µM; Kd (HLA-A*02:50; source organism: Yersinia pestis Nepal516): 0.0025 µM

Q: Which Kd (HLA-A*02:01 [8]; [20]) does the source give for MQQAYQCIV here?
A: 0.0865 µM

Q: And the Kd (HLA-A*02:11 [14])?
A: 0.028 µM

Q: What about the Kd (HLA-A*69:01 [12]; [20]) of the same sequence?
A: 9.04 µM

Q: What about the Kd (HLA-A*02:50; source organism: Burkholderia mallei NCTC 10229) of the same sequence?
A: 0.0116 µM
